The results in this text go back to patent US20190119403A1 (published 2019).

The target in this assay is human cathepsin B (Recombinant Human Procathepsin B, Novoprotein, converted into active form) (human, UniProt P07858 80-333). Description: enzyme inhibition.

B1: Stefin A-derived antibody Fab (Fab, V domains shown)
VH: not shown
VL: DIQMTQSPSSLSASVGDRVTITCRASQDVNVVAGTTAVAWYQQKPGKAPKLLIYGGSKSLPGQNEDLSGGFLYSGVPSRFSGSRSGTDFTLTISSLQPEDFATYYCQQHLGGPITTPPTFGQGTKLEIKR
On to B1, for which the Ki is 225 nM.

As usually defined, the Ki is a measure of affinity in units of concentration, obtained from inhibition or displacement.
